# Reference: PMC9409194, “Salt Dependence of DNA Binding Activity of Human Transcription Factor Dlx3”
# B1: dlxDNA (dsDNA)
# DNA 1: CGTAATTGCC
# DNA 2: GGCAATTACG
# Target: Dlx3-HD (human, UniProt O60479 129-188)
# Experiment: NMR (1H/15N-HSQC CSP and imino proton titration); 100 mM NaCl, 35 C; slow exchange; 10 mM sodium phosphate pH 6.0, 100, 250 or 500 mM NaCl, 90% H2O/10% D2O, 35 C
# Settings: protein: recombinant; tags: Ni-NTA purified (His-tag implied); blunt
# Dlx3-HD, sequence (O60479 129-188): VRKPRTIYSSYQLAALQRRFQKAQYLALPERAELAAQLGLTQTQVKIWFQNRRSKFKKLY
binder,measurement,value
B1,binding result,binds
